Experimental data reported in patent publication US20160017052A1 (Genentech, published 2016).

Assays:
[1] = target: T1, human factor D (human, UniProt P00746 26-253); experiment: cell-based or functional assay
[2] = target: T1, human factor D; experiment: SPR, KD compared with AFD.v14
Protocol: The flow rate was 30 μL/min, the running buffer was HBS-P+, the temperature of analysis was 25° C., real-time reference cell subtraction was employed, and dissociation following factor D injection was followed for 10 minutes. After subtraction of the sensorgram observed for injection of running buffer, data were analyzed according to a 1:1 model using BiaEval software v4.1 (GE Healthcare) to extract the kinetics and affinity constants.

T1 sequence (P00746 26-253 limits assumed): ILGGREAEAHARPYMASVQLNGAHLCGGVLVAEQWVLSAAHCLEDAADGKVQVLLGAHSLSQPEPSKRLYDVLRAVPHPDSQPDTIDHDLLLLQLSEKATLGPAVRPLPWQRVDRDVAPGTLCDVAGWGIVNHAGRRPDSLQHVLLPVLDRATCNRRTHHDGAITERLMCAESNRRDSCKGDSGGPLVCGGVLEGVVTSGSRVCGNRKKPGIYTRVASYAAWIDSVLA

| fold decrease in affinity for fD against SIESD.N103S (AFD.v14) [2] | Binder | IC50 (nM) AP Hemolysis [1] |
| --- | --- | --- |
|  | AFD.v7 (TM.D92E; VL-D30E:D31S VH-D62E VL-D92E) (Fab, V domains shown) VH: EVQLVQSGPELKKPGASVKVSCKASGYTFTNYGMNWVRQAPGQGLEWMGWINTYTGETTYAEDFKGRFVFSLDTSVSTAYLQISSLKAEDTAVYYCEREGGVNNWGQGTLVTVSS VL: DIQVTQSPSSLSASVGDRVTITCITSTDIESDMNWYQQKPGKVPKLLISGGNTLRPGVPSRFSGSGSGTDFTLTISSLQPEDVATYYCLQSESLPYTFGQGTKVEIKR | 3.8 nM |
|  | AFD.v8 (SIESD; VL-D28S:D30E:D31S VH-D62E) (Fab, V domains shown) VH: EVQLVQSGPELKKPGASVKVSCKASGYTFTNYGMNWVRQAPGQGLEWMGWINTYTGETTYAEDFKGRFVFSLDTSVSTAYLQISSLKAEDTAVYYCEREGGVNNWGQGTLVTVSS VL: DIQVTQSPSSLSASVGDRVTITCITSTSIESDMNWYQQKPGKVPKLLISGGNTLRPGVPSRFSGSGSGTDFTLTISSLQPEDVATYYCLQSDSLPYTFGQGTKVEIKR | 4.2 nM |
| 4 fold | AFD.v15 (SIESD.N103S.D92E; VL-D28S:D30E:D31S:D92E VH-D62E:N103S) (Fab, V domains shown, Fab variant) VH: EVQLVQSGPELKKPGASVKVSCKASGYTFTNYGMNWVRQAPGQGLEWMGWINTYTGETTYAEDFKGRFVFSLDTSVSTAYLQISSLKAEDTAVYYCEREGGVSNWGQGTLVTVSS VL: DIQVTQSPSSLSASVGDRVTITCITSTSIESDMNWYQQKPGKVPKLLISGGNTLRPGVPSRFSGSGSGTDFTLTISSLQPEDVATYYCLQSESLPYTFGQGTKVEIKR |  |
|  | AFD.v14 (SIESD.N103S; VL-D28S:D30E:D31S VH-D62E VH-N103S) (Fab, V domains shown) VH: EVQLVQSGPELKKPGASVKVSCKASGYTFTNYGMNWVRQAPGQGLEWMGWINTYTGETTYAEDFKGRFVFSLDTSVSTAYLQISSLKAEDTAVYYCEREGGVSNWGQGTLVTVSS VL: DIQVTQSPSSLSASVGDRVTITCITSTSIESDMNWYQQKPGKVPKLLISGGNTLRPGVPSRFSGSGSGTDFTLTISSLQPEDVATYYCLQSDSLPYTFGQGTKVEIKR | 4.1 nM |
